# Measurements: patent US20170022268A1 (H LUNDBECK A S, published 2017)
# Where no end group is shown, it is not given here. [ ]: non-standard residue; d: D form. pGlu = O=C1CC[C@@H](C(=O)O)N1
# Key:
# [1] = biological target: T1, pyroglutamated murine Aβ3-11 with the addition of a C-terminal cysteine residue, pE-FGHDSGFE-C (murine, not fully specified); test: SPR (BIAcore 3000), peptide immobilised on CM5 chip
# T1 construct: The range 3-11 counts on Aβ, not on APP; also called murine AβpE3; murine AβpE3-11-C
# T1 peptide: [pGlu]FGHDSGFEC
# Experimental: (§1) Affinity measurements using SPR technology: Binding affinity of anti-Aβ antibodies was determined using BIAcore 3000 (Biacore, Upsula, Sweden). Human and murine pyroglutaminyl and unmodified Aβ peptides with a C-terminal Cystein were immobilized on a CM5 chip using the 2-(2-pyridinyldithio) ethaneamine hydrochloride (PDEA) coupling technology (GE healthcare).
# [2] = biological target: T2, pyroglutamated human Aβ3-11 with the addition of a C-terminal cysteine residue, pE-FRHDSGYE-C (human, not fully specified); test: as above
# T2 construct: The range 3-11 counts on Aβ, not on APP; also called human AβpE3; human AβpE3-11-C
# T2 peptide: [pGlu]FRHDSGYEC
# Experimental: as §1
Binder,binding result [1],binding result [2]
"monoclonal antibody 5C9 (antibody, V domains shown, also called LuAb1h) VH: QIQLQQSGPELVKPGAAVKISCKASGYTFTDYYLNWVKQKPGQGLEWIGWIYPGSGNVKYNEKFKGKATLTADTSSNTAHMQLSSLTSEDTAVYFCTREGLIVYWGQGTLVTVSA VL: DVVLTQTPFTLSVTIGQPASISCKSSQSLLHSNGESYLNWLFQRPGQSPKRLIYAVSKLDSGVPDRFTGSGSGTDFTLKISRVEAEDLGVYYCVQGTHFPFTFGGGTKLEIK",no binding,–
"monoclonal antibody 2E4 (antibody, V domains shown, Mouse hybridoma monoclonal antibody directed against murine AβpE3) VH: EVKLEESGGGLVQPGGSMKLSCTASGITLNDAWMTWVRQSPEKGLEWVGEIRNKANNHATNYAESVKGRFSISRDDSKGIVYLQMNSLRAEDTGNYYCTRHSYWGPGTLVTVSA VL: DILMTQSPSSMSVSLGDTVSITCHASQGIRNNIGWLQEKPGKSFKGLIYHGTKLEDGIPSRFSGSGSGADYSLTISSLESEDVADYYCVQYDQFPYTFGGGTKLEIK",–,no binding
"monoclonal antibody 1G11 (antibody, V domains shown, Mouse hybridoma monoclonal antibody directed against murine AβpE3) VH: EVKLEESGGGLVQPGGSMKLSCTASGLTLSDAWMNWVRQSPEKGLEWVAEIRSKAYKHATYYAESVKGRFTISRDDSKSCIYLQMNTLRAEDTGIYYCTRHGSWGPGTLVTVSA VL: DILMSQSPSSMSVSLGDRVSITCRASQGISSKMGWLQQKPGKSSKGLIYHGTKLEDGVPSRFSGSGSGAEYSLTISSLESEDFGDYYCVQYAQFPYTFGGGTKLEIK",–,no binding
